Where a chain is given by its changes, count along the chain named.
B1: hu35B4.H1L2 (antibody, V domains shown)
VH: EVQLLESGGGLVQPGGSLRLSCAASGFTLSSYALSWVRQAPGKGLEWVSYISNLGGSTFYPDTVKGRFTISRDNSKNTLYLQMNSLRAEDTAVYYCAKHLYNYDAFASWGQGTLVTVSS
VL: DIQLTQSPSFLSASVGDRVTITCRASSSVNYIHWYQQKPGKAPKALIYATSNLASGVPSRFSGSGSGTEYTLTISSLQPEDFATYYCQQWNSNPLTFGQGTKLEIK
B2: ch99H8 (antibody, V domains shown)
VH: QVQLQQSGPELVKPGASVKLSCKASGYSFTNFDINWVKQRPGQGLQWIGRLYPRDGTTTYNEKFKGKASLTVDTSSTTSYMDLHSLTSEDSAVYFCVRGNYGNSFAYWGQGTLVTVSA
VL: DIVMTQSPSSLTVTAREKVIMNCKSSQSLFNSGNQKNYLTWYQQKPGQSPKLLIYWASTRQSGVPDRFTGSGSGTDFTLTISTVQAEDLAVYFCQNGFSFPYTFGGGTKLEMN
B3: 99H8 (antibody, V domains shown)
VH: B2 VH
VL: B2 VL
B4: ch97A9 (antibody, V domains shown)
VH: QVQLQQSGPELVKPGASMKLSCKASGYSFTRNDINWVKQRPGQGLEWIGLSYPRDGTTQYNGKFKGKATLTVDTSSSTAYMELRSLTSEDSAVYFCARGYYGNSFAYWGQGTLVTVSA
VL: DIVMTQSPSSLTVTAGEKVTMSCKSSQSLLNSGNQKNYLTWYQQKPGQPPKLLIYWASTRESGVPDRFTGSGSGTYFTLTISSVQAEDLAVYFCQNDYYFPYTFGGGTKLEIK
B5: 22E12 (antibody, V domains shown)
VH: QVQLQQPGTELVKTGTSVKLSCKASGYTFTNWVHWVIQRPGQGLEWIGEINPTNGRSNYNEKFKKKATLTLDRSSTTAYMQLSSLTSEDSAVYFCAGIYYGNSFAHWGQGTLVTVSA
VL: B4 VL with M21L, A57S, Y76D, F93H, D97N, F100Y, Y102L, G106A, I112L
B6: 97A9 (antibody, V domains shown)
VH: B4 VH
VL: B4 VL
B7: 35B4 (antibody, V domains shown)
VH: EAKLVESGGDFMQPGGSLKLSCAASGFTLSSYALSWVRQTPEKRLEWVAYISNLGGSTFYPDTVKGRFTISRDNARNTLFLQMSSLQSEDTAIYYCATHLYNYDAFASWGQGTLVTVSA
VL: QIVLSQSPAILSASPGEKVTMTCRASSSVNYIHWYQQKPGSSPKAWIYATSNLASGVPTRFSGSGSGTSYSLTIDRVEAEDAATYYCQQWNSNPLTFGAGTKLELK
B8: 33G12 (antibody, V domains shown)
VH: EVKLVESGGGLVQPGGSLKLSCAASGFTFSRYAMSWVRQTPEKRLEWVAYISIGGTTYYPDTIKGRFTISRDNAKNTLYLQMSSLKSEDTAMYYCTRHYYGHDVMDYWGQGTSVTVSS
VL: B7 VL with A9T, S26T, N30S, I32M, Y35F, A45P, T59A, D75S, N91S, S92R
B9: hu22E12.H1L2 (antibody, V domains shown)
VH: QVQLVQSGAEVKKPGASVKVSCKASGYTFTNWVHWVRQAPGQGLEWMGEINPTNARSNYNEKFKKRVTMTRDTSTSTVYMELSSLRSEDTAVYYCARIYYGNSFAHWGQGTLVTVSS
VL: DIVMTQSPDSLAVSLGERATINCKSSQSLLNAGNQKNYLTWYQQKPGQPPKLLIYWSSTRESGVPDRFSGSGSGTDFTLTISSLQAEDVAVYHCQNNYYYPLTFGGGTKLEIK

Legend:
[1] = target: recombinant 6xHis tagged human CLDN18.2 (human); experiment: SPR (Biacore); same values as Table 30, where the antibody is hu35B4.H1L2
[2] = target: recombinant 6xHis tagged human CLDN18.2 (human); experiment: SPR (Biacore T200), His tagged CLDN18.2 amine-coupled on CM5, antibody as analyte, 1:1 fit
[3] = target: recombinant 6xHis tagged human CLDN18.2 (human); experiment: SPR (Biacore); same values as Table 30, where the antibody is ch99H8
[4] = target: human CLDN18.2 as used in the Octet assay (human); experiment: Octet (BLI); format not described
[5] = target: mouse CLDN18.2 (mCLDN18.2), expressed on HEK293 cells (mouse) (UniProt P56857); experiment: FACS, HEK293/mCLDN18.2 cells
[6] = target: recombinant 6xHis tagged human CLDN18.2 (human); experiment: SPR (Biacore); same values as Table 30, where the antibody is ch97A9
[7] = target: biotin labeled hCLDN18.2 (human); experiment: competitive ELISA: excess antibody plus biotin labeled hCLDN18.2 on coated IMAB362; competitor IMAB362
[8] = target: recombinant 6xHis tagged human CLDN18.2 (human); experiment: SPR (Biacore); same values as Table 30, where the antibody is hu22E12.H1L2

Binder	Kd [2]	koff [2]	kon [2]	Kd [4]	EC50 [5]	Compete with IMAB362 (%) [7]	other results
B1	1.57 nM	0.00035 s⁻¹	222000 M⁻¹ s⁻¹				Kd [1]: 1.57 nM
B2	1.75 nM	0.000355 s⁻¹	203000 M⁻¹ s⁻¹				Kd [3]: 1.75 nM
B3				2 nM	3.5 nM		
B4	1.15 nM	0.000489 s⁻¹	425000 M⁻¹ s⁻¹				Kd [6]: 1.15 nM
B5				< 0.001 nM	0.9 nM	49%	
B6				2.2 nM	1.4 nM	92%	
B7				3.3 nM	1.9 nM	81%	
B8				6.2 nM	1.7 nM	87%	
B9	0.26 nM	0.000202 s⁻¹	778000 M⁻¹ s⁻¹				Kd [8]: 0.26 nM
